Reference: paper PMC9482650, “Quantitative fragmentomics allow affinity mapping of interactomes” (Nature Communications, 2022)

T1: APBA1_1, Q02410
T1 sequence (Q02410 651-752, limits assumed, looked up): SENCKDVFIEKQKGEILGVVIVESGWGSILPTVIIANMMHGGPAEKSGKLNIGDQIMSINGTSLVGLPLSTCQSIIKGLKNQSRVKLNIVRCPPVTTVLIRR

T2: APBA1_2, Q02410
T2 sequence (Q02410 742-832, limits assumed, looked up): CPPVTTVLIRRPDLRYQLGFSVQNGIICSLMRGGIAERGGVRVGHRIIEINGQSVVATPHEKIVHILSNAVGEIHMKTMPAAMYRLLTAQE

T3: APBA2_1, Q99767
T3 sequence (Q99767 563-664, limits assumed, looked up): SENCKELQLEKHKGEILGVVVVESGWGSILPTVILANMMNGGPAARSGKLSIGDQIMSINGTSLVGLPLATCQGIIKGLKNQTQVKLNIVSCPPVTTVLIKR

T4: APBA2_2, Q99767
T4 sequence (Q99767 654-744, limits assumed, looked up): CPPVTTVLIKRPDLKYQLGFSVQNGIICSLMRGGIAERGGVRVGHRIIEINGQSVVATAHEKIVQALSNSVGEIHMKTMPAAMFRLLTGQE

T5: DVL3, Q92997
T5 sequence (Q92997 244-331, limits assumed, looked up): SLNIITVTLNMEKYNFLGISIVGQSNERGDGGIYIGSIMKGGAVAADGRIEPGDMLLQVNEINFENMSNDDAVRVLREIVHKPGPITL

T6: GRIP1_4, Q9Y3R0
T6 sequence (Q9Y3R0 467-571, limits assumed, looked up): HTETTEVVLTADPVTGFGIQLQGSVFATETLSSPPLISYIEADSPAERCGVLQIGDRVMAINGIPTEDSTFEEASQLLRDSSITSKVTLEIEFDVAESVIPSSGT

T7: HTRA3, P83110
T7 sequence (P83110 354-453, limits assumed, looked up): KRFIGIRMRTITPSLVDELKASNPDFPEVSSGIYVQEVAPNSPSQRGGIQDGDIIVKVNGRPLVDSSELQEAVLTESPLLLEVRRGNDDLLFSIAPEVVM

T8: LIN7C, Q9NUP9
T8 sequence (Q9NUP9 88-185, limits assumed, looked up): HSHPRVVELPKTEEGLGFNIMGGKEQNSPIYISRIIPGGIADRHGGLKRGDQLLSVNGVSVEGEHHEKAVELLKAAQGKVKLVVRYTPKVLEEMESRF

T9: LNX2_2, Q8N448
T9 sequence (Q8N448 334-432, limits assumed, looked up): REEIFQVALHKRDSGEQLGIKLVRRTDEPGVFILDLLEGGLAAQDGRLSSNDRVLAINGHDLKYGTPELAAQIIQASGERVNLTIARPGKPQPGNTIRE

T10: LNX2_3, Q8N448
T10 sequence (Q8N448 463-564, limits assumed, looked up): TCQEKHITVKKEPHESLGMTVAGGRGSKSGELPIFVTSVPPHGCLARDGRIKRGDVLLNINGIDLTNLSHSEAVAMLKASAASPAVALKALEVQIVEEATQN

T11: MPDZ_10, O75970
T11 sequence (O75970 1624-1722, limits assumed, looked up): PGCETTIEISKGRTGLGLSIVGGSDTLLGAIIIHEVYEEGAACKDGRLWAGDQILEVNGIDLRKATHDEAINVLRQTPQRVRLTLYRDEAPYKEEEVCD

T12: NHERF3_3, Q5T2W1
T12 sequence (Q5T2W1 238-333, limits assumed, looked up): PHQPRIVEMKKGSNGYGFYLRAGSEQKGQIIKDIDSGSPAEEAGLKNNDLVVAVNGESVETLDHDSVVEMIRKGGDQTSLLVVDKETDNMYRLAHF

T13: SNTA1, Q13424
T13 sequence (Q13424 82-180, limits assumed, looked up): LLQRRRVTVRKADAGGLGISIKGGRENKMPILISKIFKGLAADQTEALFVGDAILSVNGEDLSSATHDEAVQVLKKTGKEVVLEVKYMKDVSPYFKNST


Assays:
Assay in all cases: holdup assay
Set-up in all cases: key: below the threshold = too weak to quantify, mostly under pKd 3.1 to 4
Details in all cases: plain residues with an end cap or a label only (N-terminal biotin on a linker: ado-ado)
APBA1_1, Q02410 = target: T1, APBA1_1, Q02410
APBA1_2, Q02410 = target: T2, APBA1_2, Q02410
APBA2_1, Q99767 = target: T3, APBA2_1, Q99767
APBA2_2, Q99767 = target: T4, APBA2_2, Q99767
DLG4_1, P78352 = target: DLG4_1, P78352
DVL3, Q92997 = target: T5, DVL3, Q92997
FRMPD2_3, Q68DX3 = target: FRMPD2_3, Q68DX3
GRID2IP_1, A4D2P6 = target: GRID2IP_1, A4D2P6
GRIP1_4, Q9Y3R0 = target: T6, GRIP1_4, Q9Y3R0
GRIP2_4, Q9C0E4 = target: GRIP2_4, Q9C0E4
HTRA3, P83110 = target: T7, HTRA3, P83110
Inadl_4, Q8NI35 = target: Inadl_4, Q8NI35
LIN7C, Q9NUP9 = target: T8, LIN7C, Q9NUP9
LNX1_2, Q8TBB1 = target: LNX1_2, Q8TBB1
LNX1_3, Q8TBB1 = target: LNX1_3, Q8TBB1
LNX2_2, Q8N448 = target: T9, LNX2_2, Q8N448
LNX2_3, Q8N448 = target: T10, LNX2_3, Q8N448
MAGI2_2, Q86UL8 = target: MAGI2_2, Q86UL8
MPDZ_10, O75970 = target: T11, MPDZ_10, O75970
NHERF3_3, Q5T2W1 = target: T12, NHERF3_3, Q5T2W1
NHERF4_2, Q86UT5 = target: NHERF4_2, Q86UT5
NHERF4_4, Q86UT5 = target: NHERF4_4, Q86UT5
PDLIM1, O00151 = target: PDLIM1, O00151
SCRIB_1, Q14160 = target: SCRIB_1, Q14160
SNTA1, Q13424 = target: T13, SNTA1, Q13424

Sequence of PDLIM1, O00151 (O00151 1-87): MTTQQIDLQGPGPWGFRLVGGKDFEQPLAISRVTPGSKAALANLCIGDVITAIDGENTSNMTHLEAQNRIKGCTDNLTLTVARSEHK
Sequence of FRMPD2_3, Q68DX3 (Q68DX3 1073-1166): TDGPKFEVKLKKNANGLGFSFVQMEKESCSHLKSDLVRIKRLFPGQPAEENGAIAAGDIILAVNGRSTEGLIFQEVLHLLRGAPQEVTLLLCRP
Sequence of NHERF4_4, Q86UT5 (Q86UT5 464-550): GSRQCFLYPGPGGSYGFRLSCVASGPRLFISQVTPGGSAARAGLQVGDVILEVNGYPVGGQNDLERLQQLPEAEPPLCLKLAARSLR
Sequence of MAGI2_2, Q86UL8 (Q86UL8 410-522): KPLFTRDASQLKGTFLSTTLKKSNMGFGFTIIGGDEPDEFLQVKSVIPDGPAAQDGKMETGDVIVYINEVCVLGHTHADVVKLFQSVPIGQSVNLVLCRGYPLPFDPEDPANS
Sequence of SCRIB_1, Q14160 (Q14160 718-814): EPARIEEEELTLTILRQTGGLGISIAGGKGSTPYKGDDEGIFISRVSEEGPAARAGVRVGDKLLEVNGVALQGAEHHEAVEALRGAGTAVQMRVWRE
Sequence of DLG4_1, P78352 (P78352 62-152): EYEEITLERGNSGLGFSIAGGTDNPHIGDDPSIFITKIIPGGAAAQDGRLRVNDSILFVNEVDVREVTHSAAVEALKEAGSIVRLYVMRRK
Sequence of NHERF4_2, Q86UT5 (Q86UT5 220-308): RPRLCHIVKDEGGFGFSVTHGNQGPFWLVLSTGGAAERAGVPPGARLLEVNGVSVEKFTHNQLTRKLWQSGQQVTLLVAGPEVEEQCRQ
Sequence of GRIP2_4, Q9C0E4 (Q9C0E4 446-548): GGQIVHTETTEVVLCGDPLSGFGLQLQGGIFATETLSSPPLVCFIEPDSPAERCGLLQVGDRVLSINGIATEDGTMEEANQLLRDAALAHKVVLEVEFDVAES
Sequence of GRID2IP_1, A4D2P6 (A4D2P6 1-87): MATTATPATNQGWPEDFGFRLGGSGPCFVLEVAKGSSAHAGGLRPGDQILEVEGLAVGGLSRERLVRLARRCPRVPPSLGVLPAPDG
Sequence of LNX1_3, Q8TBB1 (Q8TBB1 500-596): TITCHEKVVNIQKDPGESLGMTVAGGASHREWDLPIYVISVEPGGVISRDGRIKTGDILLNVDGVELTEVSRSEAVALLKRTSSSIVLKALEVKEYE
Sequence of Inadl_4, Q8NI35 (Q8NI35 547-651): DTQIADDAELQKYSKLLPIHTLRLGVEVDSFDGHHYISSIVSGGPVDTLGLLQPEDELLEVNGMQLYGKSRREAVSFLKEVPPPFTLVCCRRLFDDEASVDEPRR
Sequence of LNX1_2, Q8TBB1 (Q8TBB1 371-470): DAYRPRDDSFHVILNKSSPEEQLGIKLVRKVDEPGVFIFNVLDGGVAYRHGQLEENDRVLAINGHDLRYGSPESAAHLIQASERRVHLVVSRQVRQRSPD

Row | pKd (APBA1_1, Q02410) | pKd (APBA1_2, Q02410) | pKd (APBA2_1, Q99767) | pKd (APBA2_2, Q99767) | pKd (DLG4_1, P78352) | pKd (DVL3, Q92997) | pKd (FRMPD2_3, Q68DX3) | pKd (GRID2IP_1, A4D2P6) | pKd (GRIP1_4, Q9Y3R0) | pKd (GRIP2_4, Q9C0E4) | pKd (HTRA3, P83110) | pKd (Inadl_4, Q8NI35) | pKd (LIN7C, Q9NUP9) | pKd (LNX1_2, Q8TBB1) | pKd (LNX1_3, Q8TBB1) | pKd (LNX2_2, Q8N448) | pKd (LNX2_3, Q8N448) | pKd (MAGI2_2, Q86UL8) | pKd (MPDZ_10, O75970) | pKd (NHERF3_3, Q5T2W1) | Binder | other results
1 | below the threshold | below the threshold | below the threshold | below the threshold | below the threshold | below the threshold | below the threshold | below the threshold | below the threshold | below the threshold | below the threshold | below the threshold | 3.98 | below the threshold | below the threshold | below the threshold | below the threshold | below the threshold | below the threshold | below the threshold | PAPGQHTTQI [STK16, O75716] | pKd (NHERF4_2, Q86UT5): below the threshold; pKd (NHERF4_4, Q86UT5): below the threshold; pKd (PDLIM1, O00151): below the threshold; pKd (SCRIB_1, Q14160): 3.84; pKd (SNTA1, Q13424): below the threshold
2 | below the threshold | 3.47 | below the threshold | below the threshold | below the threshold | below the threshold | below the threshold | below the threshold | below the threshold | below the threshold | 3.53 | 3.51 | below the threshold | 3.74 | 4.47 | 4.27 | below the threshold | below the threshold | below the threshold | below the threshold | QSPPNIYYKV [EFNB3, Q15768] | pKd (NHERF4_2, Q86UT5): below the threshold; pKd (NHERF4_4, Q86UT5): below the threshold; pKd (PDLIM1, O00151): below the threshold; pKd (SCRIB_1, Q14160): below the threshold; pKd (SNTA1, Q13424): below the threshold
3 | below the threshold | below the threshold | below the threshold | below the threshold | below the threshold | below the threshold | below the threshold | below the threshold | below the threshold | below the threshold | 4.65 | below the threshold | below the threshold | 4.83 | below the threshold | 4.02 | below the threshold | below the threshold | below the threshold | below the threshold | DSATVRTYSC [PPFIA1, Q13136] | pKd (NHERF4_2, Q86UT5): below the threshold; pKd (NHERF4_4, Q86UT5): below the threshold; pKd (PDLIM1, O00151): below the threshold; pKd (SCRIB_1, Q14160): below the threshold; pKd (SNTA1, Q13424): below the threshold
